Measured values as given in patent US20260209348A1 (University of California, published 2026).

B1: h6E6-002 (antibody, V domains shown)
VH: EVQLVESGGGLVKPGGSLRLSCAASGFTFSSYGISWVRQAPGKGLEWVSTISSGGGYTHYAESVKGRFTISRDNAKNSLYLQMNSLRAEDTAVYYCARHPRDFSYAMDYWGQGTTVTVSS
VL: EIVMTQSPATLSVSPGERATLSCRASQDVGHYLAWYQQKPGQAPRLLIYWASTRHTGIPARFSGSGSGTEFTLTISSLQSEDFAVYYCQQYNIYPWTFGQGTKVEIK
notes: also called clone 2
B2: h6E6-003 (antibody, V domains shown)
VH: EVQLVESGGGLVKPGGSLRLSCAASGFTFSQYGTSWVRQAPGKGLEWVSTISSGGGYTHYAESVKGRFTISRDNAKNSLYLQMNSLRAEDTAVYYCARHPRDFSYAHDYWGQGTTVTVSS
VL: EIVMTQSPATLSVSPGERATLSCRASQDVGHYLAWYQQKPGQAPRLLIYWASTRHTGIPARFSGSGSGTEFTLTISSLQSEDFAVYYCQQYNIYPWTFGQGTKVEIK
notes: also called clone 3
B3: h6E6-005 (antibody, V domains shown)
VH: EVQLVESGGGLVKPGGSLRLSCAASGFTFSGYGLSWVRQAPGKGLEWVSTISSGGGYTHYAASVKGRFTISRDNAKNSLYLQMNSLRAEDTAVYYCARHPRDFSYAMDYWGQGTTVTVSS
VL: EIVMTQSPATLSVSPGERATLSCKASQDVGHYVAWYQQKPGQAPRLLIYWASTRATGIPARFSGSGSGTEFTLTISSLQSEDFAVYYCQQYNIYPWTFGQGTKVEIK
notes: also called clone 5
B4: h6E6-006 (antibody, V domains shown)
VH: EVQLVESGGGLVKPGGSLRLSCAASGFTFSTYGMSWVRQAPGKGLEWVSTISSGGGYTHYATSVKGRFTISRDNAKNSLYLQMNSLRAEDTAVYYCARHPRDFSYAHDYWGQGTTVTVSS
VL: EIVMTQSPATLSVSPGERATLSCRASQDVGHYLAWYQQKPGQAPRLLIYWASTRATGIPARFSGSGSGTEFTLTISSLQSEDFAVYYCQQYNIYPWTFGQGTKVEIK
notes: also called clone 6
B5: h6E6-009 (antibody, V domains shown)
VH: EVQLVESGGGLVKPGGSLRLSCAASGFTFSGYGMNWVRQAPGKGLEWVSTISSGGGYTHYAESVKGRFTISRDNAKNSLYLQMNSLRAEDTAVYYCARHPRDFSYAADYWGQGTTVTVSS
VL: EIVMTQSPATLSVSPGERATLSCKASQDVGHYLAWYQQKPGQAPRLLIYWASTRATGIPARFSGSGSGTEFTLTISSLQSEDFAVYYCQQYNIYPWTFGQGTKVEIK
notes: also called clone 9
B6: h6E6-010 (antibody, V domains shown)
VH: EVQLVESGGGLVKPGGSLRLSCAASGFTFSNYGMSWVRQAPGKGLEWVSTISSGGGYTHYVASVKGRFTISRDNAKNSLYLQMNSLRAEDTAVYYCARHPRDFSYAMDYWGQGTTVTVSS
VL: EIVMTQSPATLSVSPGERATLSCKASQDVGHYLAWYQQKPGQAPRLLIYWASTRATGIPARFSGSGSGTEFTLTISSLQSEDFAVYYCQQYNIYPWTFGQGTKVEIK
notes: also called clone 10
B7: h6E6-012 (antibody, V domains shown)
VH: EVQLVESGGGLVKPGGSLRLSCAASGFTFSAYGASWVRQAPGKGLEWVSSISSGGGYTHYVESVKGRFTISRDNAKNSLYLQMNSLRAEDTAVYYCARHPRDFSYAQDYWGQGTTVTVSS
VL: EIVMTQSPATLSVSPGERATLSCRASQDVGHYLAWYQQKPGQAPRLLIYWASTRATGIPARFSGSGSGTEFTLTISSLQSEDFAVYYCQQYNIYPWTFGQGTKVEIK
notes: also called clone 12
B8: h6E6-014 (antibody, V domains shown)
VH: EVQLVESGGGLVKPGGSLRLSCAASGFTFSSYGMNWVRQAPGKGLEWVSTISSGGGYTHYVDSVKGRFTISRDNAKNSLYLQMNSLRAEDTAVYYCARHPRDFSYATDYWGQGTTVTVSS
VL: EIVMTQSPATLSVSPGERATLSCRASQDVGHYVAWYQQKPGQAPRLLIYWASTRHTGIPARFSGSGSGTEFTLTISSLQSEDFAVYYCQQYNIYPWTFGQGTKVEIK
notes: also called clone 14
B9: h6E6-015 (antibody, V domains shown)
VH: EVQLVESGGGLVKPGGSLRLSCAASGFTFSNYGLSWVRQAPGKGLEWVSTISSGGGYTHYVTSVKGRFTISRDNAKNSLYLQMNSLRAEDTAVYYCARHPRDFSYALDYWGQGTTVTVSS
VL: EIVMTQSPATLSVSPGERATLSCKASQDVGHYVAWYQQKPGQAPRLLIYWASTRHTGIPARFSGSGSGTEFTLTISSLQSEDFAVYYCQQYNIYPWTFGQGTKVEIK
notes: also called clone 15
B10: h6E6-016 (antibody, V domains shown)
VH: EVQLVESGGGLVKPGGSLRLSCAASGFTFSAYGMSWVRQAPGKGLEWVSTISSGGGYTHYATSVKGRFTISRDNAKNSLYLQMNSLRAEDTAVYYCARHPRDFSYAQDYWGQGTTVTVSS
VL: EIVMTQSPATLSVSPGERATLSCKASQDVGHYVAWYQQKPGQAPRLLIYWASTRHTGIPARFSGSGSGTEFTLTISSLQSEDFAVYYCQQYNIYPWTFGQGTKVEIK
notes: also called clone 16
B11: h6E6-017 (antibody, V domains shown)
VH: EVQLVESGGGLVKPGGSLRLSCAASGFTFSRYGMSWVRQAPGKGLEWVSSISSGGGYTHYAESVKGRFTISRDNAKNSLYLQMNSLRAEDTAVYYCARHPRDFSYAMDYWGQGTTVTVSS
VL: EIVMTQSPATLSVSPGERATLSCKASQDVGHYLAWYQQKPGQAPRLLIYWASTRHTGIPARFSGSGSGTEFTLTISSLQSEDFAVYYCQQYNIYPWTFGQGTKVEIK
notes: also called clone 17
B12: h6E6-020 (antibody, V domains shown)
VH: EVQLVESGGGLVKPGGSLRLSCAASGFTFSKYGVSWVRQAPGKGLEWVSTISSGGGYTHYAPSVKGRFTISRDNAKNSLYLQMNSLRAEDTAVYYCARHPRDFSYAMDYWGQGTTVTVSS
VL: EIVMTQSPATLSVSPGERATLSCKASQDVGHYLAWYQQKPGQAPRLLIYWASTRATGIPARFSGSGSGTEFTLTISSLQSEDFAVYYCQQYNIYPWTFGQGTKVEIK
notes: also called clone 20
B13: h6E6-022 (antibody, V domains shown)
VH: EVQLVESGGGLVKPGGSLRLSCAASGFTFSKYGTSWVRQAPGKGLEWVSTISSGGGYTHYAPSVKGRFTISRDNAKNSLYLQMNSLRAEDTAVYYCARHPRDFSYAMDYWGQGTTVTVSS
VL: EIVMTQSPATLSVSPGERATLSCKASQDVGHYVAWYQQKPGQAPRLLIYWASTRATGIPARFSGSGSGTEFTLTISSLQSEDFAVYYCQQYNIYPWTFGQGTKVEIK
notes: also called clone 22
B14: h6E6-023 (antibody, V domains shown)
VH: EVQLVESGGGLVKPGGSLRLSCAASGFTFSSYGMSWVRQAPGKGLEWVSTISSGGGYTHYAPSVKGRFTISRDNAKNSLYLQMNSLRAEDTAVYYCARHPRDFSYALDYWGQGTTVTVSS
VL: EIVMTQSPATLSVSPGERATLSCKASQDVGHYLAWYQQKPGQAPRLLIYWASTRATGIPARFSGSGSGTEFTLTISSLQSEDFAVYYCQQYNIYPWTFGQGTKVEIK
notes: also called clone 23
B15: h6E6-024 (antibody, V domains shown)
VH: EVQLVESGGGLVKPGGSLRLSCAASGFTFSEYGMSWVRQAPGKGLEWVSTISSGGGYTHYVESVKGRFTISRDNAKNSLYLQMNSLRAEDTAVYYCARHPRDFSYAMDYWGQGTTVTVSS
VL: EIVMTQSPATLSVSPGERATLSCRASQDVGHYVAWYQQKPGQAPRLLIYWASTRATGIPARFSGSGSGTEFTLTISSLQSEDFAVYYCQQYNIYPWTFGQGTKVEIK
notes: also called clone 24
B16: h6E6-025 (antibody, V domains shown)
VH: EVQLVESGGGLVKPGGSLRLSCAASGFTFSHYGHSWVRQAPGKGLEWVSTISSGGGYTHYVESVKGRFTISRDNAKNSLYLQMNSLRAEDTAVYYCARHPRDFSYAMDYWGQGTTVTVSS
VL: EIVMTQSPATLSVSPGERATLSCRASQDVGHYVAWYQQKPGQAPRLLIYWASTRATGIPARFSGSGSGTEFTLTISSLQSEDFAVYYCQQYNIYPWTFGQGTKVEIK
notes: also called clone 25
B17: h6E6-026 (antibody, V domains shown)
VH: EVQLVESGGGLVKPGGSLRLSCAASGFTFSRYGMSWVRQAPGKGLEWVSTISSGGGYTHYAASVKGRFTISRDNAKNSLYLQMNSLRAEDTAVYYCARHPRDFSYAMDYWGQGTTVTVSS
VL: EIVMTQSPATLSVSPGERATLSCKASQDVGHYVAWYQQKPGQAPRLLIYWASTRHTGIPARFSGSGSGTEFTLTISSLQSEDFAVYYCQQYNIYPWTFGQGTKVEIK
notes: also called clone 26
B18: h6E6-030 (antibody, V domains shown)
VH: EVQLVESGGGLVKPGGSLRLSCAASGFTFSSYGMSWVRQAPGKGLEWVSTISSGGGYTHYAASVKGRFTISRDNAKNSLYLQMNSLRAEDTAVYYCARHPRDFSYAMDYWGQGTTVTVSS
VL: EIVMTQSPATLSVSPGERATLSCKASQDVGHYLAWYQQKPGQAPRLLIYWASTRATGIPARFSGSGSGTEFTLTISSLQSEDFAVYYCQQYNIYPWTFGQGTKVEIK
notes: also called clone 30
B19: h6E6-031 (antibody, V domains shown)
VH: EVQLVESGGGLVKPGGSLRLSCAASGFTFSSYGMSWVRQAPGKGLEWVSTISSGGGYTHYAESVKGRFTISRDNDKNSLYLQMNSLRAEDTAVYYCARHPRDFSYAIDYWGQGTTVTVSS
VL: EIVMTQSPATLSVSPGERATLSCRASQDVGHYVAWYQQKPGQAPRLLIYWASTRHTGIPARFSGSGSGTEFTLTISSLQSEDFAVYYCQQYNIYPWTFGQGTKVEIK
notes: also called clone 31
B20: h6E6-032 (antibody, V domains shown)
VH: EVQLVESGGGLVKPGGSLRLSCAASGFTFSNYGTSWVRQAPGKGLEWVSTISSGGGYTHYAESVKGRFTISRDNAKNSLYLQMNSLRAEDTAVYYCARHPRDFSYAMDYWGQGTTVTVSS
VL: EIVMTQSPATLSVSPGERATLSCKASQDVGHYLAWYQQKPGQAPRLLIYWASTRATGIPARFSGSGSGTEFTLTISSLQSEDFAVYYCQQYNIYPWTFGQGTKVEIK
notes: also called clone 32
B21: h6E6-033 (antibody, V domains shown)
VH: EVQLVESGGGLVKPGGSLRLSCAASGFTFSTYGMSWVRQAPGKGLEWVSTISSGGGYTHYVTSVKGRFTISRDNAKNSLYLQMNSLRAEDTAVYYCARHPRDFSYAMDYWGQGTTVTVSS
VL: EIVMTQSPATLSVSPGERATLSCKASQDVGHYVAWYQQKPGQAPRLLIYWASTRHTGIPARFSGSGSGTEFTLTISSLQSEDFAVYYCQQYNIYPWTFGQGTKVEIK
notes: also called clone 33
B22: h6E6-038 (antibody, V domains shown)
VH: EVQLVESGGGLVKPGGSLRLSCAASGFTFSRYGMSWVRQAPGKGLEWVSTISSGGGYTHYAPSVKGRFTISRDNAKNSLYLQMNSPRAEDTAVYYCARHPRDFSYAQDYWGQGTTVTVSS
VL: EIVMTQSPATLSVSPGERATLSCKASQDVGHYLAWYQQKPGQAPRLLIYWASTRHTGIPARFSGSGSGTEFTLTISSLQSEDFAVYYCQQYNIYPWTFGQGTKVEIK
notes: also called clone 38

Biological target: human ROR2 (human, UniProt Q01974 34-403, limits assumed)
Sequence (Q01974 34-403 limits assumed): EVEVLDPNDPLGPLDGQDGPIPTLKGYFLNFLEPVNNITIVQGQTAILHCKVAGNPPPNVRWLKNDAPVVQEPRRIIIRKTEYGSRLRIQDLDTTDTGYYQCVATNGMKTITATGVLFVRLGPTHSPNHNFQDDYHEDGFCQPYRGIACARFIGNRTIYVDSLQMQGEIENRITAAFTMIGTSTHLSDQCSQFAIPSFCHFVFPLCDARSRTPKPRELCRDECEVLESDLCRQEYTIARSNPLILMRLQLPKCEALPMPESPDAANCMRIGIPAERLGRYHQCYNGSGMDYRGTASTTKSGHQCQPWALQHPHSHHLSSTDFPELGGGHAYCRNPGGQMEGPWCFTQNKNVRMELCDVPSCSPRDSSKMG
Test: SPR
Procedure, shortened: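 Values are dissociation constants (Kd, nM) for binding to human ROR2, measured by surface plasmon resonance. The monoclonal antibodies tested were humanized anti-human ROR2 antibodies built from murine complementarity-determining regions placed into human acceptor frameworks, with a human IgG1 constant region. Antigen format, concentrations, temperature, buffer and replicates are not given.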

B1 and B2 are within 1.5-fold of each other in Kd: 0.284 nM for the first, 0.321 nM for the second.

First: B3
Second: B4
The Kd of the first is 2.9-fold higher: 0.476 nM for the first, 0.166 nM for the second. The second binds more tightly here.

B5 and B6 are within 1.5-fold of each other in Kd: 0.215 nM for the first, 0.23 nM for the second.

First: B7
Second: B8
The Kd of the first is 25-fold higher: 1.4 nM for the first, 0.057 nM for the second.

Compared with B9, B10 is 10-fold lower in Kd: 0.386 nM for the first, 0.037 nM for the second. The second binds more tightly here.

Going from B11 to B12, the Kd falls from 4 nM to 0.629 nM (6.4-fold).

B13 and B14 are within 1.5-fold of each other in Kd: 0.271 nM for the first, 0.2 nM for the second.

B15 and B16 are within 1.5-fold of each other in Kd: 0.605 nM for the first, 0.509 nM for the second.

Compared with B17, B18 is 1.5-fold lower in Kd: 0.335 nM for the first, 0.221 nM for the second. The second binds more tightly here.

Going from B19 to B20, the Kd rises from 0.103 nM to 0.479 nM (4.7-fold).

B21 and B22 are within 1.5-fold of each other in Kd: 0.144 nM for the first, 0.147 nM for the second.
